According to patent publication US20170173114A1, “METHODS AND COMPOSITIONS FOR INDUCTION OF UCP1 EXPRESSION” (Joslin Diabetes Center, Inc., priority 2014, published 2017):

Key:
Assay type in all cases: cell-based, murine
PTGS2 (COX2) = experiment: PTGS2 mRNA / COX2 protein expression in WT-1 brown preadipocytes; conditions: for PTGS2 mRNA expression relative to the control: 200 ng/mL with insulin and T3, three days
Description: (§1) Total RNA was isolated with QIAzol lysis reagent (Qiagen, Valencia, Calif.) and purified by RNeasy Mini columns (Qiagen) following the manufacture's instructions. cDNA was prepared from total RNA using the Advantage RT-PCR kit (BD Biosciences, Palo Alto, Calif.) according to manufacturer's instructions. Diluted cDNA was used in a PCR reaction with SYBR Green Master Mix (Applied Biosystems, Foster City, Calif.) and primers specifically designed for detection of the gene of interest. PCR reactions were run in duplicate for each sample and quantitated in the ABI Sequence Detection System (Applied Biosystems). Data were expressed as arbitrary units after normalization to levels of expression of internal controls for each sample. Sequences of primers for specific genes are each obtained from the published literature or designed using publically available gene sequence databases. Unless otherwise indicated, gene expression data described in the examples below was obtained using QPCR.
Cells were harvested in lysis buffer (50 mM HEPES, 137 mM NaCl, 1 mM MgCl2, 1 mM CaCl2, 10 mM Na2P2O7, 10 mM NaF, 2 mM EDTA, 10% glycerol, 1% Igepal CA-630, 2 mM vanadate, 10 μg/ml of leupeptin, 10 μg/ml of aprotinin, 2 mM phenylmethylsulfonyl fluoride; pH 7.4). After lysis, lysates were clarified by centrifugation at 12,000×g for 20 min at 4° C., the amount of protein in the supernatants was determined by the Bradford Protein Assay (Bio-Rad Laboratories, Hercules, Calif.). Proteins were directly solubilized in Laemmli sample buffer. Equal amounts of lysates were separated by sodium dodecyl sulfate-polyacrylamide gel electrophoresis and transferred to Immobolin-P membranes. Membranes were blocked overnight at 4° C. and incubated with the indicated antibody for 2 hours at room temperature. Specifically bound primary antibodies were detected with peroxidase-coupled secondary antibody and enhanced chemiluminescence (ECL, Amersham Biosciences, Piscataway, N.J.).
To determine if FGF4, FGF5, FGF6, FGF10, FGF16, FGF17, FGF18 or FGF20 induced either UCP1 mRNA or PTGS2 mRNA expression, murine brown preadipocyte WT-1 cells (Tseng et al., Nat. Cell. Biol. (2005) 7(6):601-611) were grown in growth media (DMEM-high glucose+10% FBS) supplemented with FGF4, FGF5, FGF6, FGF10, FGF16, FGF17, FGF18, FGF20 or buffer (control) in combination with insulin (20 nM) and triidothyronine (T3, 1 nM) for three days. All FGFs were used at a dosage of 200 ng/mL. mRNA was isolated and UCP1 and PTGS2 gene expression levels were evaluated by quantitative reverse transcription polymerase chain reaction (Q-RT-PCR) analysis. All experiments were performed triplicate and the data are presented as mean+/−SEM.
To determine if FGF1 or FGF10 induce UCP1 mRNA expression or PTGS2 mRNA expression, murine brown preadipocyte WT-1 cells (Tseng et al., Nat. Cell. Biol. (2005) 7(6):601-611) were grown in growth media (DMEM-high glucose+10% FBS) supplemented with FGF1, FGF10 or vehicle (control) in combination with insulin (20 nM) and triidothyronine (T3, 1 nM) for three days. FGF1 and FGF10 were used at a dosage of 50 ng/mL, 100 ng/mL or 300 ng/mL. mRNA was isolated and UCP1 and PTGS2 expression levels were evaluated by quantitative reverse transcription polymerase chain reaction (Q-RT-PCR) analysis. All experiments were performed triplicate and the data are presented as mean+/−SEM.
To test the role of specific prostaglandins (PGs) in activating UCP1 expression, WT-1 brown adipocytes were pretreated with PGE2, PGI2 and FGF6 for 24 hours. mRNA expression levels of UCP1, PTGS2, LDHA, PDK1 and PKM2 were then measured.

UCP1 = UCP1 mRNA expression (Q-RT-PCR) in WT-1 brown preadipocytes; conditions: for expression of UCP1: 200 ng/mL with insulin and T3, three days
Description: as §1
The effect of FGF6 on differentiation of WT-1 murine brown preadipocytes was also examined. WT-1 cells can be induced to undergo brown adipocyte differentiation, characterized by lipid accumulation and expression of adipogenic and brown fat markers, as described above (Klein et al. (1999) J Biol Chem 274:34795; Tseng et al. (2005) Nat Cell Biol 7:601). WT-1 cells were treated with FGF6 in growth media (DMEM+10% FBS), a vehicle control (“control” or “C” referred to in FIGS. 3A-D), or induction media (“induction” or “I” referred to in FIGS. 3A-D) as described above for seven days. Following the treatment, cells were examined for the color of the culture media in combination with oil Red O staining, expression of adipogenic markers, expression of brown fat markers, immunofluorescent staining of cells with UCP1 and DPAI, and Western blot analysis to determine the presence of UCP1 and β-tubulin. The results are described in FIGS. 3A to 3D.
UCP1 mRNA expression in brown adipocyte cells was determined at FGF6 concentrations ranging from 0 to 300 ng/ml in the absence of induction cocktail.
In order to determine the length of time necessary to induce UCP1 expression upon exposure to of cells to FGF6, an experiment was performed whereby FGF6 was administered to brown preadipocytes at a concentration of 200 ng/ml and UCP1 expression was determined. FGF21 and a control were also used in the time course experiment. FGF21, a member of the endocrine FGF ligands that has been implicated in the browning of white fat (Fisher F. M. et al., Genes Dev. 26:271-281, 2012). […] FGF6 could acutely induce a significant increase of UCP1 expression as early as 4 hours after a 200 ng/ml dose, as described in FIG. 4B. At 24 hours, the fold-induction of UCP1 mRNA by FGF6 reached 700-fold higher than the untreated cells, as described in FIG. 4B.
To assess FGF6's role in the regulation of mitochondrial activity, FGF6 was stably expressed in WT-1 brown preadipocytes and 3T3-F442A white preadipocytes. Stable cells were generated by viral infection followed by drug selection.
FGF2, FGF6 and FGF9 were used at a dosage of 50 ng/mL, 100 ng/mL, 200 ng/mL or 300 ng/mL. FGF21 was used at the dosage of 50 ng/ml and 500 ng/mL. The concentration of BMP7 was 3.3 nM. RNA was isolated and UCP1 and PPARγ expression levels were evaluated by quantitative reverse transcription polymerase chain reaction (Q-RT-PCR) analysis after 24 hours (i.e., 1 day) (FIG. 14A), 2 days (FIG. 14B), 5 days (FIG. 14C) and 7 days (FIG. 14D) of treatment. All experiments were performed triplicate and the data are presented as mean+/−SEM.
FGF2, FGF6 and FGF9 were used at a dosage of 200 ng/mL. FGF21 was used at a dosage of 500 ng/mL. The concentration of BMP7 was 3.3 nM. mRNA was isolated and UCP1 and PPARγ expression levels were evaluated by quantitative reverse transcription polymerase chain reaction (Q-RT-PCR) analysis after 24 hours (i.e., 1 day), 2 days, 5 days and 7 days of treatment (FIG. 15). […]

UCP1 and PTGS2 = UCP1 and PTGS2 mRNA in WT-1 cells undergoing adipocyte differentiation; conditions: after induction media; 200 ng/mL FGF or 3.3 nM BMP7, 2 days
Description: In a separate experiment investigating the ability of FGF proteins to induce UCP1 expression in cells undergoing adipocyte differentiation, WT-1 preadipocyte cells were differentiated by culturing in growth media supplemented with insulin (20 nM) and triiodothyronine (T3, 1 nM) for 3 days, followed by incubation in an induction media (growth medium supplemented 20 nM insulin, 1 nM T3, 0.5 mM isobutyl-methylxanthine, 5 μM dexamethasone) for 2 days. The cell were then exposed to BMP7 (3.3 nM) or 200 ng/mL of FGF2, FGF6 or, FGF9 in growth media supplemented with insulin (20 nM) and triodothyronine (T3, 1 nM) for 2 additional days. Cells were harvested and UCP1 and PTGS2 mRNA expression levels were determined according to the quantitative RT-PCR assay described above. Experiments were performed in triplicate and the data presented as mean+/−SEM.

[1] = 50 ng/mL and 200 ng/mL with insulin and T3, three days
[2] = 50, 100 or 300 ng/mL with insulin and T3, three days, FGF1 effect at 300 ng/ml
[3] = FGF21 50 and 500 ng/mL, BMP7 3.3 nM, with insulin and T3

B1: FGF4: fibroblast growth factor 4, recombinant human, R&D Systems (protein, listed as Homo sapiens)
chain: MSGPGTAAVALLPAVLLALLAPWAGRGGAAAPTAPNGTLEAELERRWESLVALSLARLPVAAQPKEAAVQSGAGDYLLGIKRLRRLYCNVGIGFHLQALPDGRIGGAHADTRDSLLELSPVERGVVSIFGVASRFFVAMSSKGKLYGSPFFTDECTFKEILLPNNYNAYESYKYPGMFIALSKNGKTKKGNRVSPTMKVTHFLPRL
With B1 the “PTGS2 mRNA expression relative to the control” value (PTGS2 (COX2)) was “increased” and the “UCP1 mRNA expression” value (UCP1; [1]) was “high levels of UCP1 mRNA expression”.

B2: FGF5: fibroblast growth factor 5, recombinant human, R&D Systems (protein, listed as Homo sapiens)
chain: MSLSFLLLLFFSHLILSAWAHGEKRLAPKGQPGPAATDRNPRGSSSRQSSSSAMSSSSASSSPAASLGSQGSGLEQSSFQWSPSGRRTGSLYCRVGIGFHLQIYPDGKVNGSHEANMLSVLEIFAVSQGIVGIRGVFSNKFLAMSKKGKLHASAKFTDDCKFRERFQENSYNTYASAIHRTEKTGREWYVALNKRGKAKRGCSPRVKPQHISTHFLPRFKQSEQPELSFTVTVPEKKKPPSPIKPKIPLSAPRKNTNSVKYRLKFRFG
For B2, the “expression of UCP1” value (UCP1) was “not induced”.

B3: FGF22: fibroblast growth factor 22 (protein, listed as Homo sapiens)
chain: MRRRLWLGLAWLLLARAPDAAGTPSASRGPRSYPHLEGDVRWRRLFSSTHFFLRVDPGGRVQGTRWRHGQDSILEIRSVHVGVVVIKAVSSGFYVAMNRRGRLYGSRLYTVDCRFRERIEENGHNTYASQRWRRRGQPMFLALDRRGGPRPGGRTRRYHLSAHFLPVLVS
With B3 the “UCP1 mRNA expression” value (UCP1; [1]) was “not detectably induced”.

B4: FGF10: fibroblast growth factor 10, keratinocyte growth factor 2 (protein, listed as Homo sapiens)
chain: MWKWILTHCASAFPHLPGCCCCCFLLLFLVSSVPVTCQALGQDMVSPEATNSSSSSFSSPSSAGRHVRSYNHLQGDVRWRKLFSFTKYFLKIEKNGKVSGTKKENCPYSILEITSVEIGVVAVKAINSNYYLAMNKKGKLYGSKEFNNDCKLKERIEENGYNTYASFNWQHNGRQMYVALNGKGAPRRGQKTRRKNTSAHFLPMVVHS
For B4, the “PTGS2 mRNA expression” value (PTGS2 (COX2); [2]) was “did not induce expression”, the “expression of UCP1” value (UCP1) was “not induced” and the “UCP1 mRNA expression” value (UCP1; [2]) was “did not induce expression”.

B5: FGF17: fibroblast growth factor 17 (protein, listed as Homo sapiens)
chain: MGAARLLPNLTLCLQLLILCCQTQGENHPSPNFNQYVRDQGAMTDQLSRRQIREYQLYSRTSGKHVQVTGRRISATAEDGNKFAKLIVETDTFGSRVRIKGAESEKYICMNKRGKLIGKPSGKSKDCVFTEIVLENNYTAFQNARHEGWFMAFTRQGRPRQASRSRQNQREAHFIKRLYQGQLPFPNHAEKQKQFEFVGSAPTRRTKRTRRPQPLT
B5 was tested, and the “PTGS2 mRNA expression relative to the control” value (PTGS2 (COX2)) was “increased”.

B6: BMP7: bone morphogenetic protein 7, rhBMP7 provided by Stryker Regenerative Medicine (protein, UniProt P18075 293-431, looked up)
Bone morphogenetic protein 7: STGSKQRSQNRSKTPKNQEALRMANVAENSSSDQRQACKKHELYVSFRDLGWQDWIIAPEGYAAYYCEGECAFPLNSYMNATNHAIVQTLVHFINPETVPKPCCAPTQLNAISVLYFDDSSNVILKKYRNMVVRACGCH
For B6, the “UCP1 expression level at day 7” value (UCP1; [3]) was “only minimal amounts”, the “UCP1 expression level at days 1, 2 and 5” value (UCP1; [3]) was “did not express detectable amounts of UCP1” and the “PTGS2 mRNA expression in cells undergoing adipocyte differentiation” value (UCP1 and PTGS2) was “minimal levels”. The “UCP1 mRNA expression in cells undergoing adipocyte differentiation” value (UCP1 and PTGS2) was “minimal levels”.

B7: FGF18: fibroblast growth factor 18 (protein, listed as Homo sapiens)
chain: MYSAPSACTCLCLHFLLLCFQVQVLVAEENVDFRIHVENQTRARDDVSRKQLRLYQLYSRTSGKHIQVLGRRISARGEDGDKYAQLLVETDTFGSQVRIKGKETEFYLCMNRKGKLVGKPDGTSKECVFIEKVLENNYTALMSAKYSGWYVGFTKKGRPRKGPKTRENQQDVHFMKRYPKGQPELQKPFKYTTVTKRSRRIRPTHPA
In the case of B7, the “PTGS2 mRNA expression relative to the control” value (PTGS2 (COX2)) is reported as “increased”.
